These results are taken from FireProtDB (doi:10.1021/bi982427c).

The chains are these.
B1: Acyl-CoA-binding protein, P07107 (parent)
chain: MSQAEFDKAAEEVKHLKTKPADEEMLFIYSHYKQATVGDINTERPGMLDFKGKAKWDAWNELKGTSKEDAMKAYIDKVEELKKKYGI

In the data set the parent is B1. The note with it: Bos taurus; pH 5.3; 5 °C; GdnHCl; Fluorescence; Sodium acetate 0.02 M; reversible: yes; structure 2ABD; whole UniProt chain shown.

For V13A, the “ddG of mutation (higher = less stable)” value was found to be 1.69 kcal/mol and the unfolding free energy is 6.2 kcal/mol.

In the case of K53M K55M, the “ddG of mutation (higher = less stable)” value was -1.01 kcal/mol and the unfolding free energy worked out at 8.9 kcal/mol.

With L26A, the “ddG of mutation (higher = less stable)” value came to 1.02 kcal/mol and the unfolding free energy came to 6.87 kcal/mol.

P20A: the “ddG of mutation (higher = less stable)” value was determined as 1.07 kcal/mol and the unfolding free energy was found to be 6.82 kcal/mol.

For the variant Y32N, the “ddG of mutation (higher = less stable)” value was found to be 1.52 kcal/mol and the unfolding free energy came out at 6.37 kcal/mol.

For the variant V78A, the “ddG of mutation (higher = less stable)” value came out at 1.14 kcal/mol and the unfolding free energy is 6.75 kcal/mol.

In the case of E68A, the “ddG of mutation (higher = less stable)” value worked out at 0.36 kcal/mol and the unfolding free energy came out at 7.53 kcal/mol.

Turning to K55A, the “ddG of mutation (higher = less stable)” value was determined as 0.86 kcal/mol and the unfolding free energy was determined as 7.03 kcal/mol.

On to Y29F, for which the “ddG of mutation (higher = less stable)” value worked out at 1.06 kcal/mol and the unfolding free energy is 6.83 kcal/mol.

In the case of Y29A, the “ddG of mutation (higher = less stable)” value is 2.47 kcal/mol and the unfolding free energy came to 5.42 kcal/mol.

For the variant A35G, the “ddG of mutation (higher = less stable)” value worked out at 1.57 kcal/mol and the unfolding free energy was determined as 6.32 kcal/mol.

T36A: the “ddG of mutation (higher = less stable)” value came to 1.09 kcal/mol and the unfolding free energy was 6.8 kcal/mol.

Regarding F6A, the “ddG of mutation (higher = less stable)” value was found to be 2.52 kcal/mol and the unfolding free energy was determined as 5.37 kcal/mol.

In the case of D22A, the “ddG of mutation (higher = less stable)” value was -0.42 kcal/mol and the unfolding free energy is 8.31 kcal/mol.

For D22H, the “ddG of mutation (higher = less stable)” value is 0.56 kcal/mol and the unfolding free energy came out at 7.33 kcal/mol.

Regarding K53M, the “ddG of mutation (higher = less stable)” value was -0.18 kcal/mol and the unfolding free energy is 8.07 kcal/mol.

Take P45A: the “ddG of mutation (higher = less stable)” value stood at 1.4 kcal/mol and the unfolding free energy came out at 6.49 kcal/mol.

Turning to L16A, the “ddG of mutation (higher = less stable)” value is 3.1 kcal/mol and the unfolding free energy was 4.79 kcal/mol.

Take Y74F: the “ddG of mutation (higher = less stable)” value is -0.27 kcal/mol and the unfolding free energy was determined as 8.16 kcal/mol.

As for Y74A, the “ddG of mutation (higher = less stable)” value was found to be 4.83 kcal/mol and the unfolding free energy came to 3.06 kcal/mol.

Consider K33E, for which the “ddG of mutation (higher = less stable)” value stood at 1.68 kcal/mol and the unfolding free energy is 6.21 kcal/mol.

As to K33A, the “ddG of mutation (higher = less stable)” value was found to be 1.02 kcal/mol and the unfolding free energy is 6.87 kcal/mol.

As to K33R, the “ddG of mutation (higher = less stable)” value was determined as 1.83 kcal/mol and the unfolding free energy was determined as 6.06 kcal/mol.

Take Q34A: the “ddG of mutation (higher = less stable)” value is 3.66 kcal/mol and the unfolding free energy was determined as 4.23 kcal/mol.

Take L81A: the “ddG of mutation (higher = less stable)” value is 3.7 kcal/mol and the unfolding free energy was 4.19 kcal/mol.
